This series concerns the target T1, RANTES(1-68), P13501.
T1 chain: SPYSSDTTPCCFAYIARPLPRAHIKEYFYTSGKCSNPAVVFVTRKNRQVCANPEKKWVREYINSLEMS

B1: enzymatically deficient (E-) recombinant soluble human CD26 (sCD26) (protein)
chain: NKGTDDATADSRKTYTLTDYLKNTYRLKLYSLRWISDHEYLYKQENNILVFNAEYGNSSVFLENSTFDEFGHSINDYSISPDGQFILLEYNYVKQWRHSYTASYDIYDLNKRQLITEERIPNNTQWVTWSPVGHKLAYVWNNDIYVKIEPNLPSYRITWTGKEDIIYNGITDWVYEEEVFSAYSALWWSPNGTFLAYAQFNDTEVPLIEYSFYSDESLQYPKTVRVPYPKAGAVNPTVKFFVVNTDSLSSVTNATSIQITAPASMLIGDHYLCDVTWATQERISLQWLRRIQNYSVMDICDYDESSGRWNCLVARQHIEMSTTGWVGRFRPSEPHFTLDGNSFYKIISNEEGYRHICYFQIDKKDCTFITKGTWEVIGIEALTSDYLYYISNEYKGMPGGRNLYKIQLSDYTKVTCLSCELNPERCQYYSVSFSKEAKYYQLRCSGPGLPLYTLHSSVNDKGLRVLEDNSALDKMLQNVQMPSKKLDFIILNETKFWYQMILPPHFDKSKKYPLLLDVYAGPCSQKADTVFRLNWATYLASTENIIVASFDGRGSGYQGDKIMHAINRRLGTFEVEDQIEAARQFSKMGFVDNKRIAIWGWAYGGYVTSMVLGSGSGVFKCGIAVAPVSRWEYYDSVYTERYMGLPTPEDNLDHYRNSTVMSRAENFKQVEYLLIHGTADDNVHFQQSAQISKALVDVGVDFQAMWYTDEDHGIASSTAHQHIYTHMSHFIKQCFSLP
For the protein B1, the “hydrolysis of rhRANTES by sCD26 (ES-MS of cleavage products)” value is “shortened RANTES was not generated by incubation of the chemokine with a mutant sCD26 deficient in enzyme activity”.

For the origin of these results see US20030229203.
